Laboratory results published in publication PMC8563728 (Nature Communications, 2021).

Molecular target: SARS-CoV-2 S1 (SARS-CoV-2, wild type (Wuhan-Hu-1), UniProt P0DTC2)
Assay: SPR
Conditions: both partners purified

B1: 58G6 (antibody, V domains shown)
VH: QMQLVQSGPEVKKPGTSVKVSCKASGFTFSSSAVQWVRQARGQHLEWIGWIVVGSGNTNYAQKFQERVTLTRDMSTRTAYMELSSLRSEDTAVYYCAAPNCNSTTCHDGFDIWGQGTVVTVSS
VL: EIVLTQSPGTLSLSPGERATLSCRASQSVRSSYLGWYQQKPGQAPRLLIYGASSRATGIPDRFSGSGSGTDFTLTISRLESEDFAVYYCQQYDNSPWTFGQGTKVEIK
notes: also called 58G6 mAb; copies: 2 + 2
With B1 the Kd was 1.08 nM.
